Test: soluble fraction after stress (log2 fold change); higher = more stays soluble; pooled small domains, quantitative proteomics
Conditions: stress: 50 degC
Outline: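 Custom libraries of small protein domains were pooled and measured in a high-throughput format, with quantitative proteomics as the read-out. Each library was stressed at 50°C. The value is the log2 fold change in the amount of each protein that stays soluble after stress, used as a measure of aggregation propensity; higher values mean more of the protein stays soluble.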

| Sequence | soluble fraction (log2) |
| --- | --- |
| HMVQYVDFVKRMIEELPWWHRRMLELKYLDGLTYEEIADELQVPVGTVKGTLHRAKELFQEILKNN | -2.05 |
| HMVRDPYELLEVPREATPDEIKSAFRKLAARHHPDRNPDDPGAQERFKEINAAYQLLSDPQKRAMFDRFGA | 0.169 |
| HMVRKIQAKLVLRLHAQGLSGRAIARSQGMSRRSVSDVLDAARAVGVGWDDVTGKTDGEVYALLFPGRG | -2.47 |
| HMVRKIRARLVLQLRAEGLSGRAIAGSQGMSRKSVTAVLDAADRAGIGWDEIAERSEGEVYALLFPGRG | -1.34 |
| HMVRQKYKSNFITVGDKSLTIHDWAQRLNLSQYALRNRYKEFGKEWVEKAIKTILETGDNTHIYK | -0.847 |
| HMVRSLADQVYERLRRNIVSGDLAPNARIVELDIAAQMGTSQGPVREALQRLEREGLVQRRAHSATFVTD | -0.279 |
| HMVRVSELAIEPRLVVEETATGFVGAVVRYANGLIELEDRHGAVRTFPLGPGYLVDGRPVSLVKPT | -0.371 |
| HMVSEDELLARIALLPYPQAKILLEERLSHDPANAKVRQLYLELAKKSGDHTEVTRHNSLLY | -0.104 |
| HMVSKIEAPLPGIILSVDVKEGDTVKAGDKLMVMEAMKMENAILAETNGVVKSIKVKIQDSVLQGDILAEI | -0.171 |
| HMVSKSDVQRALEKVEPVLRKLGGSTVEKVRVMARQATLVFEMLKSWWKGEIDLPWKTVAAMTVTLLYL | -0.266 |
| HMVSLNKTEFIAVKKASASELRDKINSLGLDVLKDATISADARTNQIIATGPKYALEQIKMLVVGLDVSS | 0.0771 |
| HMVSLRQQVYDYLRSQMNQGELRPGSAINLGEMSSRFGISRTPLREALLQLETEGFVTIYPRKGIIVN | -0.793 |
| HMVSLTGEWRPSKDALDILITKGGINPNFIDDAVPEFILYWRDRGDVSNTWDSKFIQHVRRQWQFYTGI | -2.93 |
| HMVSMSFDDYVNDAKEYESEGDKDKAYNSYLEAYKLNKSSEEVLDYLIDNTEDVTLKLNYVYEYLDL | -0.0996 |
| HMVSNFEAEFGRHFAIFFPGSEFTELKLRLLEEGAELIDPIRDTPFERFFFKDPNGYIFEVIDKE | -2.28 |
| HMVSNRMVYSDFQQKWINNQVESINVNADKMTIEVTTQDEKKYTVYAPSSMIEFLNEQYPKDDIKIEYVAP | -0.147 |
| HMVSPLEKSQSFGSFEISREFARTLGLTSARNWENWAASDSRPINIPYSPNVFYKNKGWIDWSDWLGTE | -0.286 |
| HMVSRQINVIPDDLAGLRLDQALAHLFPQHSRSRLKEWLLEDIIIVQGGPKRPKDIVSGGEIVEIKL | -0.0906 |
| HMVSYTLPTLHTGKNWYVDFTAYDPAEQKMKRKKYMLDGISKITERRKRAVDIIATVTARLRSGWNPWA | -2.7 |
| HMVTARMPDLFGLDEATAQRMVSNAGLTLKTEYAYSDQAEGYVFDQTPEANAEVRRGGTVTAMIS | 0.0381 |
| HMVTEIDYGAFIKMTEEGNIGEVKIEDNQIVFTDKENKAIYKTGIMPDSDLTQRLYDSGAVFA | 0.0785 |
| HMVTEKPLYRDELMDHDTVWVEPISMDSHLRMELRGWYHVKNRFVENEVGQRFYFDFYDIKWLAFTNGP | -2.08 |
| HMVTINTASLEKAIADAKAVVKESYTTDSYNAMKAVLDEAEDLLKEEAQDQDTIDAKTEALNAAIEALVKR | 0.0369 |
| HMVTLPLLKRGHTGLPVKALQTLLVLRGMSVDVDGSFGEKTESAVRTFQTAAKILSDGEVGKDTWKALI | -1.43 |
| HMVTPPMVVVDVQGEVKTPGVYHLPTNSRVNDAIKAAGGPKQSADLSYINQARMVKDGEQIYVEKKL | 0.12 |
| HMVTTDPIADMLTRIRNASSQKHKSVDVPASKEKLAIAQILFEEGYIKSFEEIKEENNQGVIRITLKYTEK | -0.0766 |
| HMVTVPNYSDPRQYVEWGNANGITINRAVGDTIASMSGRVQDVRDSNGNSVIGKKVKKGSTVTVYIYFLK | -0.00985 |
| HMVTVSAVNITPKGHTTVGFTDRSVNPPSNYYLRVGESADGWTVKDADFDDEIATLEKDGVAITLKL | -0.0772 |
| HMVTYELTEDEKFIVSLLEKENSQPIGALKDKSALSGKKWDAAMKGLAKHGLTKVVVDGDNKLVVL | -0.00965 |
| HMVVEDDTVLQAVKQAIEENPEAVSDYFEGKSKALNFLVGQVMRITRGKADPAKTNQMVVEELKNR | 0.111 |

— the domain aggregation screens of Martell et al. (2025)
